Measured values reported in article PMC9732821, “Neurotrophic Activity and Its Modulation by Zinc Ion of a Dimeric Peptide Mimicking the Brain-Derived Neurotrophic Factor N-Terminal Region” (ACS Chemical Neuroscience, 2022).

Assays:
[1] = tested on: TrkB; details: synaptic cleft; cited from earlier work
Description: BDNF is the predominant NT in the adult brain and is widely distributed in the cortical areas, visual cortex, and hippocampus.[3] Activation of TrkB by BDNF initiates downstream signaling cascades mediated by Ras/ERK, PI3K/Akt, and PLC-γ.[4] After its activation, the BDNF–TrkB complex undergoes endocytosis, recycling, or degradation and crucially takes the axonal transport route to sustain neuron survival and differentiation.[5] Furthermore, BDNF/TrkB signaling regulates dendritic branching, the density of spines, and spine morphological specializations, acting both as the mediator and modulat ... || The modulation of the BDNF–TrkB signaling axis has been recently postulated as a drug target for the treatment of neurological diseases, including nerve injury, neurodegenerative diseases, and neuropsychiatric disorders.[15],[16] Unfortunately, the therapeutic use of BDNF, as that of other NTs, is challenging due to the uncontrolled side effects as well as their low bioavailability.[17] To overcome such limitations, the use of peptide fragments that can mimic specific domains of the NTs has been explored in the last few years.[18] The most investigated BDNF structural elements have been so far ...

[2] = molecular target: TrkB receptor, endogenous in differentiated SH-SY5Y cells (human (endogenous in SH-SY5Y)) (UniProt Q16620); test: immunostaining of cells or tissue; non-permeabilizing immunofluorescence of membrane-bound BDNF on differentiated SH-SY5Y cells; 1 h treatment with BDNF 150 ng/mL, d-bdnf 10 μM, or both
UniProt Q16620, sequence (Q16620 32-822): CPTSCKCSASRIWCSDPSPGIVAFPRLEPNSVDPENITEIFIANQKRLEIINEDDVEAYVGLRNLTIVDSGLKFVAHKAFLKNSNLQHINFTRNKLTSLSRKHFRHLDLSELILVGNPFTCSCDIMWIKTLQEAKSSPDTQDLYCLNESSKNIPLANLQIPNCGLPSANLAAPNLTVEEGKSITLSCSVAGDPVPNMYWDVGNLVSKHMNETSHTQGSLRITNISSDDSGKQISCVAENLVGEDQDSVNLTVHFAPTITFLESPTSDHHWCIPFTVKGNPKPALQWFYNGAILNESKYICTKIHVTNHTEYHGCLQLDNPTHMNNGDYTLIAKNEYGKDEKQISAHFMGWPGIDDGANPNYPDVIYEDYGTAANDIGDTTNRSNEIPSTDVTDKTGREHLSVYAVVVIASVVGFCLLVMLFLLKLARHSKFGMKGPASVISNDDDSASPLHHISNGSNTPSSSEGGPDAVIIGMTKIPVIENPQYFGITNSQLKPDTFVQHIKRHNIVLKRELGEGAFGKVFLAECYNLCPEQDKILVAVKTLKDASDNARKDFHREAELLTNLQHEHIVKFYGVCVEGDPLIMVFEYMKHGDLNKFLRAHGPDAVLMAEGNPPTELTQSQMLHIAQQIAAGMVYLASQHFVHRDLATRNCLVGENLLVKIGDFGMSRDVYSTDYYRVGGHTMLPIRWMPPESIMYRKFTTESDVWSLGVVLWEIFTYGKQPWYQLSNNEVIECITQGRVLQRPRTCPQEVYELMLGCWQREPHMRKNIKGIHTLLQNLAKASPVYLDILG

[3] = molecular target: TrkB receptor, endogenous in differentiated SH-SY5Y cells (human (endogenous in SH-SY5Y)) (UniProt Q16620)

increase of the fluorescent signal of membrane-bound BDNF on the cells [2]	EC50 of ERK phosphorylation, dose-response in differentiated SH-SY5Y cells (referred to the monomer form) [3]	maximal effect (Emax) of ERK phosphorylation, dose-response in differentiated SH-SY5Y cells [3]	Molecule	TrkB activation [1]
			[Zn+2] [zinc]	prompt post-synaptic, BDNF-independent TrkB activation
40%	0.69 nM	237	recombinant human mature BDNF (hBDNF) (ligand)	
